The results in this text go back to patent US20220242957A1 (MARENGO THERAPEUTICS, published 2022).

One assay concerns the target T1, human CSF1R (human, UniProt P07333 20-972).
T1 construct: whole, on cells; also called hCSF1R
Put plainly: flow cytometry on HEK-293T cells stably transduced with human CSF1R; anti-human Fc APC; percent APC positive. The procedure: HEK-293T cells were lentivirally transduced with human CSF1R and stable cell lines were generated. Nearly all transduced cells expressed high levels of CSF1R. Cells were washed with PBS containing 0.5% BSA and 0.1% sodium azide (staining buffer) and added to 96-well V-bottom plates with 100,000 cells/well. Human anti-CSF1R monovalent antibodies were added to the cells in 2.5 fold serial dilutions and incubated for 2 hour at room temperature. The plates were washed twice with staining buffer. The secondary antibody against human Fc conjugated to APC was added at 1:200 dilution (1.5 mg/ml stock) and incubated with the cells for 1 hour at 4° C. followed by washing with staining buffer. Cells were subsequently stained with a live/dead dye to exclude any dying cells and were fixed for 10 minutes with 4% paraformaldehyde at room temperature. The plates were read on CytoFLEX LS (Beckman Coulter). Data was calculated as the percent-APC positive population.
A general note: In flow cytometry, cells or beads pass a laser one at a time.

Another assay addresses T2, human CSF1R-Fc ECD (human, UniProt P07333 20-517).
T2 construct: extracellular domain; not shown: Fc part of the coated reagent, not described
Put plainly: ELISA, plate coated with 2 µg/mL human CSF1R, monovalent antibody titrated, anti-human Fc HRP. The procedure:
Microplates were separately coated with 2 μg/mL of human or cyno CSF1R in 100 μL and blocked with 2% BSA. Serial dilutions of unlabeled monovalent human antibodies (11 points, 3-fold dilutions, 400 nM to […]) were transferred to the coated and blocked plates at 75 μL/well and incubated for 1 hr at room temperature. Plates were washed three times and incubated for 30 mins with anti-human Fc horseradish peroxidase conjugate followed by addition of TMB, a substrate of HRP. The plates were developed for 5 mins, stopped with 1M HCL and read at a wavelength of 450 nm.
(An ELISA detects its analyte on a solid surface through an enzyme-linked reagent.)

T1 sequence (P07333 20-972): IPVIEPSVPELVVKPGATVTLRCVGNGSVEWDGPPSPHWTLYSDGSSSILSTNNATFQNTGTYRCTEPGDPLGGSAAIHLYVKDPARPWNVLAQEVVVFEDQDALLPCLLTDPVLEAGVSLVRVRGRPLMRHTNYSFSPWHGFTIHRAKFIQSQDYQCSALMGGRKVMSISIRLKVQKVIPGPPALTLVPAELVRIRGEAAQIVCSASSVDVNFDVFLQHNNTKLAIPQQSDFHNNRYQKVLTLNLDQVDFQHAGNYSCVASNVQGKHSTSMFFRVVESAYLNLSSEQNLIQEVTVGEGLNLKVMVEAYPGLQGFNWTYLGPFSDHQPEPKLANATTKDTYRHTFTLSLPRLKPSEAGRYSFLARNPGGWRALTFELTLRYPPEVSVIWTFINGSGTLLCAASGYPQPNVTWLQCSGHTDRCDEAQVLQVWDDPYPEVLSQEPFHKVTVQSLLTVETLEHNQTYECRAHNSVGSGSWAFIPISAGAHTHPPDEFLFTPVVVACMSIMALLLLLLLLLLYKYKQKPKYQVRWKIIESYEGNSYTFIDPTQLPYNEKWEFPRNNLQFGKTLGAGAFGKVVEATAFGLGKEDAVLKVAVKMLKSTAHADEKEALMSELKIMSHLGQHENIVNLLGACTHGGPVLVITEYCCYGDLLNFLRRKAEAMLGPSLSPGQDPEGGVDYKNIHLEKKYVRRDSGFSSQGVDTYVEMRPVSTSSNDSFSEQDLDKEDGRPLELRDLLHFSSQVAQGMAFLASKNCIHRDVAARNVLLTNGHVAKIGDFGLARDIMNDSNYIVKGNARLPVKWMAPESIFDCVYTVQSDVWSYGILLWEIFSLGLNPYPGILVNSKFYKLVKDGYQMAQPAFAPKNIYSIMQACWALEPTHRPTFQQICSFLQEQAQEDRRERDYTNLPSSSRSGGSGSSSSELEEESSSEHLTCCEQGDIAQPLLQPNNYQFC
T2 sequence (P07333 20-517): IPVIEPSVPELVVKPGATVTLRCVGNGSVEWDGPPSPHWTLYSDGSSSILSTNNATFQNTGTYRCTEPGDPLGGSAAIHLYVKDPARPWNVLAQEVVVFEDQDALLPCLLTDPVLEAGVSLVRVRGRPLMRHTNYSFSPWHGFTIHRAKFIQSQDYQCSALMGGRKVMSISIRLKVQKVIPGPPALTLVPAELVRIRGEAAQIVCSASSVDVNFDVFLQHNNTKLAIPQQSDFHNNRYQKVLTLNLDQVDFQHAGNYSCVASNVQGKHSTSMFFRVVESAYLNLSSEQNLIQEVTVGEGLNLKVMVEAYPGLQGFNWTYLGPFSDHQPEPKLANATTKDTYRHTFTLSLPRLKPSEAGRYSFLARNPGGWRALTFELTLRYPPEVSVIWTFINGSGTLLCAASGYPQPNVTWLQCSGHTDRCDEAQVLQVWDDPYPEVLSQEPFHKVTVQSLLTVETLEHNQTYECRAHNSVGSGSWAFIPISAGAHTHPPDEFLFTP

B1: BIM0552 (antibody, human IgG1, lambda)
heavy: EVQLVESGGGLVQPGGSLRLSCAASGFTFSNDEMNWIRQAPGKGLEWVSYISSRSSTIYYADAVKGRFTISRDNARNSLYLQMNSLRAEDTAVYYCARGVDGDFSFDYWGQGTLVTVSSASTKGPSVFPLAPSSKSTSGGTAALGCLVKDYFPEPVTVSWNSGALTSGVHTFPAVLQSSGLYSLSSVVTVPSSSLGTQTYICNVNHKPSNTKVDKRVEPKSCDKTHTCPPCPAPELLGGPSVFLFPPKPKDTLMISRTPEVTCVVVDVSHEDPEVKFNWYVDGVEVHNAKTKPREEQYNSTYRVVSVLTVLHQDWLNGKEYKCKVSNKALPAPIEKTISKAKGQPREPQVCTLPPSREEMTKNQVSLSCAVKGFYPSDIAVEWESNGQPENNYKTTPPVLDSDGSFFLVSKLTVDKSRWQQGNVFSCSVMHEALHNHYTQKSLSLSPGK
light: QLVLTQPPSVSGAPGQRVTISCTGSSSNIGAGYDVHWYQQLPGTAPKLLIYGNSNRPSGVPDRFSGSKSGTSASLAITGLQAEDEADYYCQSYDSSLSEEVFGGGTKLTVLGQPKANPTVTLFPPSSEELQANKATLVCLISDFYPGAVTVAWKADGSPVKAGVETTKPSKQSNNKYAASSYLSLTPEQWKSHRSYSCQVTHEGSTVEKTVAPTECS
chain: not shown
notes: Heavy chain entry ends in X = K or absent; also called multispecific molecule 80; aCSF1R BI117 half-arm antibody
With B1, the binding result with human CSF1R and with human CSF1R-Fc ECD was “binds” throughout.

B2: BIM0544 (antibody, human IgG1, lambda)
heavy: EVQLVESGGGLVQPGGSLRLSCAASGFTFSNDEMNWIRQAPGKGLEWVSYISSRSSTIYYADAVKGRFTISRDNARNSLYLQMNSLRAEDTAVYYCARNSDEDGSFDYWGQGTLVTVSSASTKGPSVFPLAPSSKSTSGGTAALGCLVKDYFPEPVTVSWNSGALTSGVHTFPAVLQSSGLYSLSSVVTVPSSSLGTQTYICNVNHKPSNTKVDKRVEPKSCDKTHTCPPCPAPELLGGPSVFLFPPKPKDTLMISRTPEVTCVVVDVSHEDPEVKFNWYVDGVEVHNAKTKPREEQYNSTYRVVSVLTVLHQDWLNGKEYKCKVSNKALPAPIEKTISKAKGQPREPQVCTLPPSREEMTKNQVSLSCAVKGFYPSDIAVEWESNGQPENNYKTTPPVLDSDGSFFLVSKLTVDKSRWQQGNVFSCSVMHEALHNHYTQKSLSLSPGK
light: QLVLTQPPSVSGAPGQRVTISCTGSSSNIGAGYDVHWYQQLPGTAPKLLIYGNSNRPSGVPDRFSGSKSGTSASLAITGLQAEDEADYYCQSYDSSLSEEVFGGGTKLTVLGQPKANPTVTLFPPSSEELQANKATLVCLISDFYPGAVTVAWKADGSPVKAGVETTKPSKQSNNKYAASSYLSLTPEQWKSHRSYSCQVTHEGSTVEKTVAPTECS
chain: not shown
notes: Half-arm (monovalent) anti-human CSF1R antibody, three chains as BIM0542; Heavy chain entry ends in X = K or absent; also called multispecific molecule 72; aCSF1R BI117 D1-R2A half-arm antibody
For the molecule B2, the binding result with human CSF1R and in the assay with human CSF1R-Fc ECD was “binds” throughout.

B3: BIM0543 (antibody, human IgG1, lambda)
heavy: EVQLVESGGGLVQPGGSLRLSCAASGFTFSNDEMNWIRQAPGKGLEWVSFISGGSSTIYYADAVKGRFTISRDNARNSLYLQMNSLRAEDTAVYYCARGVDGDFSFDYWGQGTLVTVSSASTKGPSVFPLAPSSKSTSGGTAALGCLVKDYFPEPVTVSWNSGALTSGVHTFPAVLQSSGLYSLSSVVTVPSSSLGTQTYICNVNHKPSNTKVDKRVEPKSCDKTHTCPPCPAPELLGGPSVFLFPPKPKDTLMISRTPEVTCVVVDVSHEDPEVKFNWYVDGVEVHNAKTKPREEQYNSTYRVVSVLTVLHQDWLNGKEYKCKVSNKALPAPIEKTISKAKGQPREPQVCTLPPSREEMTKNQVSLSCAVKGFYPSDIAVEWESNGQPENNYKTTPPVLDSDGSFFLVSKLTVDKSRWQQGNVFSCSVMHEALHNHYTQKSLSLSPGK
light: QLVLTQPPSVSGAPGQRVTISCTGSSSNIGAGYDVHWYQQLPGTAPKLLIYGNSNRPSGVPDRFSGSKSGTSASLAITGLQAEDEADYYCQSYDSSLSEEVFGGGTKLTVLGQPKANPTVTLFPPSSEELQANKATLVCLISDFYPGAVTVAWKADGSPVKAGVETTKPSKQSNNKYAASSYLSLTPEQWKSHRSYSCQVTHEGSTVEKTVAPTECS
chain: not shown
notes: Half-arm (monovalent) anti-human CSF1R antibody, three chains as BIM0542; Heavy chain entry ends in X = K or absent; also called multispecific molecule 71; aCSF1R BI117 C9-R2A half-arm antibody
Take B3: the binding result with human CSF1R and with human CSF1R-Fc ECD was “binds” throughout.

B4: BIM0542 (antibody, human IgG1, lambda)
heavy: EVQLVESGGGLVQPGGSLRLSCAASGFTFSNDEMNWIRQAPGKGLEWVSYISSGSSTIYYADAVKGRFTISRDNARNSLYLQMNSLRAEDTAVYYCARGVDGDFSFDYWGQGTLVTVSSASTKGPSVFPLAPSSKSTSGGTAALGCLVKDYFPEPVTVSWNSGALTSGVHTFPAVLQSSGLYSLSSVVTVPSSSLGTQTYICNVNHKPSNTKVDKRVEPKSCDKTHTCPPCPAPELLGGPSVFLFPPKPKDTLMISRTPEVTCVVVDVSHEDPEVKFNWYVDGVEVHNAKTKPREEQYNSTYRVVSVLTVLHQDWLNGKEYKCKVSNKALPAPIEKTISKAKGQPREPQVCTLPPSREEMTKNQVSLSCAVKGFYPSDIAVEWESNGQPENNYKTTPPVLDSDGSFFLVSKLTVDKSRWQQGNVFSCSVMHEALHNHYTQKSLSLSPGK
light: QLVLTQPPSVSGAPGQRVTISCTGSSSNIGAGYDVHWYQQLPGTAPKLLIYGNSNRPSGVPDRFSGSKSGTSASLAITGLQAEDEADYYCQSYDSSLSEEVFGGGTKLTVLGQPKANPTVTLFPPSSEELQANKATLVCLISDFYPGAVTVAWKADGSPVKAGVETTKPSKQSNNKYAASSYLSLTPEQWKSHRSYSCQVTHEGSTVEKTVAPTECS
chain: not shown
notes: Heavy chain entry ends in X = K or absent; also called multispecific molecule 70; aCSF1R BI117 C5-R2A half-arm antibody
For the molecule B4, the binding result with human CSF1R and with human CSF1R-Fc ECD was “binds” throughout.

B5: BIM0546 (antibody, human IgG1, lambda)
heavy: EVQLVESGGGLVQPGGSLRLSCAASGFTFSNDEMNWIRQAPGKGLEWVSYISSRSSTIYYADAVKGRFTISRDNARNSLYLQMNSLRAEDTAVYYCARGVDGDFSFDVWGQGTLVTVSSASTKGPSVFPLAPSSKSTSGGTAALGCLVKDYFPEPVTVSWNSGALTSGVHTFPAVLQSSGLYSLSSVVTVPSSSLGTQTYICNVNHKPSNTKVDKRVEPKSCDKTHTCPPCPAPELLGGPSVFLFPPKPKDTLMISRTPEVTCVVVDVSHEDPEVKFNWYVDGVEVHNAKTKPREEQYNSTYRVVSVLTVLHQDWLNGKEYKCKVSNKALPAPIEKTISKAKGQPREPQVCTLPPSREEMTKNQVSLSCAVKGFYPSDIAVEWESNGQPENNYKTTPPVLDSDGSFFLVSKLTVDKSRWQQGNVFSCSVMHEALHNHYTQKSLSLSPGK
light: QLVLTQPPSVSGAPGQRVTISCTGSSSNIGAGYDVHWYQQLPGTAPKLLIYGNSNRPSGVPDRFSGSKSGTSASLAITGLQAEDEADYYCQSYDSSLSEEVFGGGTKLTVLGQPKANPTVTLFPPSSEELQANKATLVCLISDFYPGAVTVAWKADGSPVKAGVETTKPSKQSNNKYAASSYLSLTPEQWKSHRSYSCQVTHEGSTVEKTVAPTECS
chain: not shown
notes: Half-arm (monovalent) anti-human CSF1R antibody, three chains as BIM0542; Heavy chain entry ends in X = K or absent; also called multispecific molecule 74; aCSF1R BI117 G1-R2B half-arm antibody
As for B5, the binding result with human CSF1R and with human CSF1R-Fc ECD was “binds” each time.

B6: BIM0545 (antibody, human IgG1, lambda)
heavy: EVQLVESGGGLVQPGGSLRLSCAASGFTFSNDEMNWIRQAPGKGLEWVSYITSKSSTIYYADSVKGRFTISRDNARNSLYLQMNSLRAEDTAVYYCARGVDGDFSFDYWGQGTLVTVSSASTKGPSVFPLAPSSKSTSGGTAALGCLVKDYFPEPVTVSWNSGALTSGVHTFPAVLQSSGLYSLSSVVTVPSSSLGTQTYICNVNHKPSNTKVDKRVEPKSCDKTHTCPPCPAPELLGGPSVFLFPPKPKDTLMISRTPEVTCVVVDVSHEDPEVKFNWYVDGVEVHNAKTKPREEQYNSTYRVVSVLTVLHQDWLNGKEYKCKVSNKALPAPIEKTISKAKGQPREPQVCTLPPSREEMTKNQVSLSCAVKGFYPSDIAVEWESNGQPENNYKTTPPVLDSDGSFFLVSKLTVDKSRWQQGNVFSCSVMHEALHNHYTQKSLSLSPGK
light: QLVLTQPPSVSGAPGQRVTISCTGSSSNIGAGYDVHWYQQLPGTAPKLLIYGNSNRPSGVPDRFSGSKSGTSASLAITGLQAEDEADYYCQSYDSSLSEEVFGGGTKLTVLGQPKANPTVTLFPPSSEELQANKATLVCLISDFYPGAVTVAWKADGSPVKAGVETTKPSKQSNNKYAASSYLSLTPEQWKSHRSYSCQVTHEGSTVEKTVAPTECS
chain: not shown
notes: Half-arm (monovalent) anti-human CSF1R antibody, three chains as BIM0542; Heavy chain entry ends in X = K or absent; also called multispecific molecule 73; aCSF1R BI117 E2-R2B half-arm antibody
With B6, the binding result with human CSF1R and in the assay with human CSF1R-Fc ECD was “binds” throughout.

B7: BIM0547 (antibody, human IgG1, lambda)
heavy: EVQLVESGGGLVQPGGSLRLSCAASGFTFSNDEMNWIRQAPGKGLEWVSYITSKSSTIYYADAVKGRFTISRDNARNSLYLQMNSLRAEDTAVYYCARGVDGDFSFDYWGQGTLVTVSSASTKGPSVFPLAPSSKSTSGGTAALGCLVKDYFPEPVTVSWNSGALTSGVHTFPAVLQSSGLYSLSSVVTVPSSSLGTQTYICNVNHKPSNTKVDKRVEPKSCDKTHTCPPCPAPELLGGPSVFLFPPKPKDTLMISRTPEVTCVVVDVSHEDPEVKFNWYVDGVEVHNAKTKPREEQYNSTYRVVSVLTVLHQDWLNGKEYKCKVSNKALPAPIEKTISKAKGQPREPQVCTLPPSREEMTKNQVSLSCAVKGFYPSDIAVEWESNGQPENNYKTTPPVLDSDGSFFLVSKLTVDKSRWQQGNVFSCSVMHEALHNHYTQKSLSLSPGK
light: QLVLTQPPSVSGAPGQRVTISCTGSSSNIGAGYDVHWYQQLPGTAPKLLIYGNSNRPSGVPDRFSGSKSGTSASLAITGLQAEDEADYYCQSYDSSLSEEVFGGGTKLTVLGQPKANPTVTLFPPSSEELQANKATLVCLISDFYPGAVTVAWKADGSPVKAGVETTKPSKQSNNKYAASSYLSLTPEQWKSHRSYSCQVTHEGSTVEKTVAPTECS
chain: not shown
notes: Half-arm (monovalent) anti-human CSF1R antibody, three chains as BIM0542; Heavy chain entry ends in X = K or absent; also called multispecific molecule 75; aCSF1R BI117 G12-R2B half-arm antibody
As to B7, the binding result with human CSF1R and with human CSF1R-Fc ECD was “binds” in each case.
